Laboratory results: US20180371076A1, “MATERNAL TH17 CELLS AND PSYCHIATRIC DISORDERS” (New York University, priority 2017, published 2018)

Key:
[1] = test system: offspring of pregnant mice (MIA mouse model); assay: Ultrasonic vocalization (USV) assay in pups, MIA mouse model; assay type: in vivo
Procedure: Maternal Immune Activation. Mice were mated overnight and females were checked daily for the presence of seminal plugs, noted as embryonic day 0.5 (E0.5). On E12.5, pregnant female mice were weighed and injected with a single dose (20 mg/kg; i.p.) of poly(I:C) (Sigma Aldrich) or PBS vehicle. Each dam was returned to its cage and left undisturbed until the birth of its litter. All pups remained with the mother until weaning on postnatal day 21 (P21), at which time mice were group housed at maximum 5 per cage with same-sex littermates. For the IL-17 cytokine blockade experiment, monoclonal IL-17a blocking antibody (clone 50104; R&D) or isotype control antibody (IgG2a, clone 54447; R&D) was administered 6 h before maternal immune activation (FIG. 2) via i.p. route (500 μg/animal) or 2 days after maternal immune activation (FIG. 5) via i.p. route (500 μg/animal).
Ultrasonic vocalizations. On postnatal day 9, mice were removed from the nest and placed in a 15-cm diameter dish in a sound-attenuated chamber. Mouse ultrasonic vocalizations (USVs) were detected for 3 min using an UltraSoundGateCM16/CMPA microphone (AviSoft) in the chamber under stable temperature and light control, and recorded with SAS Prolab software (AviSoft). For certain USV tests, Ultravox software (Noldus information Technology, USA) was used. An amplitude filter was used to eliminate extraneous peripheral noise (i.e. HVAC). Due to the unreliability of automated USV scoring, all pup USVs were measured and confirmed manually by observers blind to the experimental conditions.
Maternal Immune Activation Mice were mated overnight and females were checked daily for the presence of seminal plugs, noted as embryonic day 0.5 (E0.5). On E12.5, pregnant female mice were weighed and injected with a single dose (20 mg/kg; i.p.) of poly(I:C) (Sigma Aldrich) or PBS vehicle. Each dam was returned to its cage and left undisturbed until the birth of its litter. All pups remained with the mother until weaning on postnatal day 21 (P21), at which time mice were group housed at maximum 5 per cage with same-sex littermates. For the IL-17 cytokine blockade experiment, monoclonal IL-17a blocking antibody (clone 50104; R&D) or isotype control antibody (IgG2a, clone 54447; R&D) were administered 6 h before maternal immune activation via i.p. route (500 μg/animal). For IL-6 cytokine injection into pregnant dams, carrier-free recombinant mouse IL-6 (R&D) was administered as a single dose (10 μg/animal; i.p.). For testing anti-IL17a therapeutic effects, IL-17a blocking antibody or isotype control antibody (as described above) was administered 2 days after maternal immune activation (500 μg/animal; i.p.).
Ultrasonic vocalizations On postnatal day 7-9, both male and female mice were removed from the nest and habituated to the testing room for 15 minutes (separate of dam). After the habituation period, mouse pups were placed in a clean 15 cm glass pyrex high wall dish. Mouse pup ultrasonic vocalizations (USVs) were then detected for 3 min using an UltraSoundGateCM16/CMPA microphone (AviSoft) in the sound attenuation chamber under stable temperature and light control (15 lux), and recorded with SAS Prolab software (AviSoft). USVs were measured between 33-125 kHz. USVs were scored as contiguous if gaps between vocalizations were <0.02 msec. For certain USV tests, Ultravox software (Noldus information Technology, USA) was used. An amplitude filter was used to eliminate extraneous peripheral noise (i.e. HVAC). Due to the unreliability of automated USV scoring, all pup USVs were measured and confirmed manually by observers blind to the experimental conditions.
Intraventricular cytokine injection At E14.5, uterine horns of pregnant mice were exposed by a caudal ventral midline incision (<2 cm). Each uterine horn was exteriorized carefully and each fetus was identified. […]

[2] = test system: cortex of the fetal brain; assay: Cortical development: SATB2/TBR1/CTIP2 immunohistochemistry of fetal and adult offspring brain; assay type: in vivo, mouse
Procedure: Immunohistochemistry. Animals were transcardially perfused with 4% paraformaldehyde in PBS under Ketamine/xylazine anesthesia. The brains were removed and sectioned at 100-μm thickness with a Leica VT1000S vibratome (Leica, USA). Slices were permeabilized with blocking solution containing 0.4% Triton X-100, 2% goat serum, and 1% BSA in PBS for 1 hr at room temperature, and then incubated with anti-TBR1 (ab31940, Abcam), anti-SATB2 (ab51502, Abcam) and anti-CTIP2 (ab18465, Abcam) antibodies overnight at 4° C. The following day, slices were incubated with fluorescently conjugated secondary antibodies (Invitrogen, USA) for 1 h at room temperature, and mounted in vectashield mounting medium with DAPI (Vector laboratories). Images of stained brain slices were acquired using a confocal microscope (LSM710; Carl Zeiss) with a 20× objective lens; all image settings were kept constant.
Intraventricular cytokine injection At E14.5, uterine horns of pregnant mice were exposed by a caudal ventral midline incision (<2 cm). Each uterine horn was exteriorized carefully and each fetus was identified. Recombinant mouse IL-17a cytokine (R&D, 0.6 μL of 2 ng/μL), IL-6 (R&D, 0.6 μL of 10 ng/μL) or saline together with the dye Fast Green (Sigma, 0.3 mg/mL) was injected (3-4 μL) into the third ventricle of each embryo by a pulled micropipette. After injection of all embryos, the uterus was replaced within the abdomen and the cavity was lavaged with warm sterile saline.
Immunohistochemistry Fetal brains of male embryos were dissected and fixed with 4% paraformaldehyde in PBS for 6 h at 4° C. Adult brains of male offspring were perfused and fixed with 4% paraformaldehyde in PBS for overnight at 4° C. The brains were removed and sectioned at 50-μm thickness with a Leica VT1000S vibratome (Leica, USA). Slices were permeabilized with blocking solution containing 0.4% Triton X-100, 2% goat serum, and 1% BSA in PBS for 1 h at room temperature, and then incubated with anti-TBR1 (ab31940, Abcam), anti-SATB2 (ab51502, Abcam), and anti-CTIP2 (ab18465, Abcam) antibodies overnight at 4° C. The following day, slices were incubated with fluorescently conjugated secondary antibodies (Invitrogen, USA) for 1 h at room temperature, and mounted in vectashield mounting medium with DAPI (Vector laboratories). Images of stained brain slices were acquired using a confocal microscope (LSM710; Carl Zeiss) with a 20× objective lens; all image settings were kept constant. Spatial locations of the patches were registered based on their distance from the midline of the brain. These cortical malformations were quantified using cropped images containing the malformations, or the corresponding region in WT brains. The region of interest (300×300 μm^2) was divided into 10 equal laminar blocks representing different depths of the cortical plate. SATB2-, TBR1-, or […] cells were counted using Image J software. Signal intensity in each image was normalized relative to the total signal intensity.

[3] = injection into pregnant WT mothers (10 μg/animal; i.p.)

poly(I:C)
number of pup USV calls ([1]; poly(I:C)-injected mothers pretreated with control antibody, vs PBS-injected mothers): emitted more USV calls | cortical thickness of the fetal brains at E18.5 ([2]; MIA (poly(I:C))): did not affect cortical thickness | cortical cytoarchitecture at E18.5 ([2]; MIA (poly(I:C)) vs PBS): patch of disorganized cortical cytoarchitecture | SATB2 and SATB2/TBR1 expression in fetal brain cortical plates at E14.5 and E18.5 ([2]; MIA (poly(I:C)) vs control): abnormal expression | SATB2 expression at E14.5 ([2]; MIA (poly(I:C)) vs control): delayed expression of SATB2 | abnormal expression of SATB2, TBR1 and CTIP2 in adult offspring ([2]; MIA adult offspring (P60)): maintained

B1: recombinant IL-6: carrier-free recombinant mouse IL-6 (R&D) (protein, UniProt P08505 25-211, looked up)
Interleukin-6: FPTSQVRRGDFTEDTTPNRPVYTTSQVGGLITHVLWEIVEMRKELCNGNSDCMNNDDALAENNLKLPEIQRNDGCYQTGYNQEICLLKISSGLLEYHSYLEYMKNNLKDNKKDKARVLQRDTETLIHIFNQEVKDLHKIVLPTPISNALLTDKLESQKEWLRTKTIQFILKSLEEFLKVTLRSTRQT
USV phenotype ([1]; injection into WT fetal brains at E14.5): nor enhanced USV phenotypes were observed | USV phenotype in offspring [1, 3]: enhanced USV | cortical phenotype in offspring [2, 3]: sufficient to produce MIA-associated behavioral (enhanced USV) and cortical phenotypes

B2: recombinant IL-17a protein: Recombinant mouse IL-17a cytokine (R&D), injected into the fetal brain ventricle (protein, UniProt Q62386 26-158, looked up)
Interleukin-17A: AAIIPQSSACPNTEAKDFLQNVKVNLKVFNSLGAKVSSRRPSDYLNRSTSPWTLHRNEDPDRYPSVIWEAQCRHQRCVNAEGKLDHHMNSVLIQQEILVLKREPESCPFTFRVEKMLVGVGCTCVASIVRQAA
pup USVs ([1]; injection into brains of fetuses from poly(I:C)-injected IL-6 KO mothers, vs PBS-injected controls): increased pup USVs | USV phenotype ([1]; injection into the ventricles of IL-17Ra KO fetuses): nor enhanced USV phenotypes were observed | USV phenotype ([1]; intra-ventricular injection at E14.5, compared with sham injection): enhanced USV phenotype | cortical organization (SATB2, TBR1) at E18.5 ([2]; injected into the ventricles of the fetal brain at E14.5 in the absence of MIA): appearance of disorganized cortical patches | thickness of the cortical plate at E18.5 ([2]; intra-ventricular injection at E14.5): thinned cortical plates at the medial but not lateral part of the brain
